One block for each binder: values may come before it.
What was measured:
[1] = target: ER anchored mCh (mCh fused with human Sac1 residues 521-587) (human) (UniProt Q9NTJ5); assay: cytosol-to-ER translocation in HeLa cells under light
[2] = target: Mito-mCh (AKAP1-mCh, mitochondria-anchored mCherry) (human) (UniProt Q92667); assay: cytosol-to-mitochondria translocation in HeLa cells under light
[3] = target: Mito-mCh (AKAP1-mCh, mitochondria-anchored mCherry) (human) (UniProt Q92667); assay: Mito-to-cytosol ratio of GFP-rapabody in HeLa cells against rapamycin dose; the concentration is that of rapamycin, not of a protein
[4] = target: NE-tethered SH2 domain of Abl kinase (SH2 fused with mEmerald-lamin A) (UniProt P00519); assay: NE/NP ratio of mCh signal in HeLa cells over light-dark cycles
[5] = target: Mito-mCh (AKAP1-mCh, mitochondria-anchored mCherry) (human) (UniProt Q92667); assay: mitochondria translocation assay in HeLa cells, 5 µM caffeine
[6] = target: Mito-mCh (AKAP1-mCh, mitochondria-anchored mCherry) (human) (UniProt Q92667); assay: mitochondria translocation assay in HeLa cells, caffeine washed out
[7] = target: Mito-mCh (AKAP1-mCh, mitochondria-anchored mCherry) (human) (UniProt Q92667); assay: Mito-to-cytosol ratio of GFP-caffebody in HeLa cells against caffeine dose; the concentration is that of caffeine, not of a protein

B1: GFP-2xsunbody (dimeric concatemer of sunbody) (VHH, not shown: large carriers)
chain: LATTLERIEKNFVITDPRLPDNPIIFASDSFLQLTEYSREEILGRNCRFLQGPETDRATVRKIRDAIDNQTEVTVQLINYTKSGKKFWNLFHLQPMRDQKGDVQYFIGVQLDGTEHVRDAAEREGVMLIKKTAENIDEAAKELKLMAQVQLVESGGGLVQAGGSLRLSCAVSGRPFSEYNLGWFRQAPGKEREFVARIRSSGTTVYTDSVKGRFSASRDNALERIEKNFVITDPRLPDNPIIFASDSFLQLTEYSREEILGRNCRFLQGPETDRATVRKIRDAIDNQTEVTVQLINYTKSGKKFWNLFHLQPMRDQKGDVQYFIGVQLDGTEHVRDAAEREGVMLIKKTAENIDEAAKNMGYLQLNSLEPEDTAVYYCAMSRVDTDSPAFYDYWGQGTQVTVSTPRSLATTLERIEKNFVITDPRLPDNPIIFASDSFLQLTEYSREEILGRNCRFLQGPETDRATVRKIRDAIDNQTEVTVQLINYTKSGKKFWNLFHLQPMRDQKGDVQYFIGVQLDGTEHVRDAAEREGVMLIKKTAENIDEAAKELKLMAQVQLVESGGGLVQAGGSLRLSCAVSGRPFSEYNLGWFRQAPGKEREFVARIRSSGTTVYTDSVKGRFSASRDNALERIEKNFVITDPRLPDNPIIFASDSFLQLTEYSREEILGRNCRFLQGPETDRATVRKIRDAIDNQTEVTVQLINYTKSGKKFWNLFHLQPMRDQKGDVQYFIGVQLDGTEHVRDAAEREGVMLIKKTAENIDEAAKNMGYLQLNSLEPEDTAVYYCAMSRVDTDSPAFYDYWGQGTQVTVSTPRS
fold increase in the signal-to-background ratio against 1x sunbody [1]: > 2 fold | fold increase in the signal-to-background ratio against 1x sunbody [2]: > 2 fold

B4: GFP-caffebody (anti-mCh nanobody LaM8 with 2xacVHH in the S3 loop) (VHH, not shown: large carriers)
chain: MAQVQLVESGGGLVQAGGSLRLSCAVSGRPFSEYNLGWFRQAPGKEREFVARIRSSGTTVYTDSVKGRFSASRDNAEVQLQASGGGLVQAGGSLRLSCTASGRTGTIYSMAWFRQAPGKEREFLATVGWSSGITYYMDSVKGRFTISRDNAKNSAYLQMNSLKPEDTAVYYCTATRAYSVGYDYWGQGTQVTVSHAAAGAPVPYPDPLEPREQKLISEEDLLEAVYSGGGGGGGSGGGGGGGSGGGGGGGSGEVQLQASGGGLVQAGGSLRLSCTASGRTGTIYSMAWFRQAPGKEREFLATVGWSSGITYYMDSVKGRFTISRDNAKNSAYLQMNSLKPEDTAVYYCTATRAYSVGYDYWGQGTQVTVSKNMGYLQLNSLEPEDTAVYYCAMSRVDTDSPAFYDYWGQGTQVTVSTPRS
half-life of caffeine-induced translocation to the antigen (t½, on) [5]: 16.3 s | deactivation half-life after withdrawal of caffeine [6]: 23.6 s | EC50 of caffeine (dose of the small-molecule switch) for binding to the antigen [7]: 2.3 µM

Second part, the binder after the results:

EC50 of rapamycin (dose of the small-molecule switch) for release from the antigen [3]: 1.6 µM
B2: GFP-rapabody (anti-mCh nanobody LaM8 with UniRapR in the S3 loop) (VHH, not shown: large carriers)
chain: QLVESGGGLVQAGGSLRLSCAVSGRPFSEYNLGWFRQAPGKEREFVARIRSSGTTVYTDSVKGRFSASRDNATCVVHYTGMLEDGKKFDSSRDRNKPFKFMLGKQEVIRGWEEGVAQMSVGQRAKLTISPDYAYGATGHGSGSGSGVKDLLQAWDLYYHVFRRISGPPGPGSGLWHEMWHEGLEEASRLYFGERNVKGMFEVLEPLHAMMERGPQTLKETSFNQAYGRDLMEAQEWCRKYMKSGSSGGSGSGIIPPHATLVFDVELLKLEKNMGYLQLNSLEPEDTAVYYCAMSRVDTDSPAFYDYWGQGTQVTVSTPRS

activation half-life (light-induced dissociation from the antigen) [4]: 7.8 s | deactivation half-life (return to the antigen in the dark) [4]: 46.5 s
B3: mCh-moonbody (anti-SH2 moonbody, variant S5.1) (designed binder, not shown: large carriers)
chain: VSSVPTKLEVVDATPTSLKISWDAYYSSWQNVKYYRITYGETGGDSPVQEFTVPGYYSTATISGLKPGSGLATTLERIEKNFVITDPRLPDNPIIFASDSFLQLTEYSREEILGRNCRFLQGPETDRATVRKIRDAIDNQTEVTVQLINYTKSGKKFWNLFHLQPMRDQKGDVQYFIGVQLDGTEHVRDAAEREGVMLIKKTAENIDEAAKELGVDYTITVYAYDTFFPGYEPNSPISINYRT

Source: US20250122266A1, “SMART SINGLE-DOMAIN INTRABODIES WITH PRECISION SWITCHES FOR BIOMEDICAL APPLICATIONS” (THE TEXAS A&M UNIVERSITY SYSTEM, priority 2020, published 2025)
